The values that follow come from paper PMC11324105.

In this test the target is Nb9-R59A (alpaca). Put plainly: BLI.

pKd: −log10 of the molar value.

Sequence of Nb9-R59A (alpaca) (heavy, as listed by the source): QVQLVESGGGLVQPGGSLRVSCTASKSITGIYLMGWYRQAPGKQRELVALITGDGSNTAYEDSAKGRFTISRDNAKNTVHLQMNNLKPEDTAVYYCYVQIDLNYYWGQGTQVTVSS

For orientation: pKd means the negative decadic logarithm of the Kd, by convention in mol/L. High values mean a small Kd, low ones a large Kd. The koff is the rate constant with which the complex falls apart. The term kon denotes the second-order rate constant of association. Higher therefore signals faster complex formation. For the substance “MERS-CoV RBD (from UniProt K9N5Q8) (domain or fragment)”, the pKd was 5.34, the koff is 0.0624 s⁻¹ and the kon turned out to be 13600 M⁻¹ s⁻¹.
